Laboratory results published in the DeepSol protein solubility set.

Experiment: soluble on expression in E. coli; label from the status in PepcDB or PDB records

| Sequence | soluble on expression in E. coli |
| --- | --- |
| MGSDKIHHHHHHMEQNAEKRSIVGDDNSTVKRQDTSPSKGIAHIKPEYIVPLKQNENQKVAIYDEEMSSDRMTNEFAGGTNKKNKNGRGKKRGQNKNRDNRQVKEQNVLCPRLIHGDISKCSFGDNCRFVHDINLYLSTKKPEVESNIFPSCPVFNSLGFCPMGFKCRFLSSHLNKEDNILISKKEIDPDAQTIWSVKGEVNHISPERKLDLIKRRFPFTKSNEILEIIDSFQQECRDSMKPEEEVESTPQLKKQDPDVEQPVAPQVEQRNKELSEHRMKQREVYLKYKDTRYFAQEKKPLDLYHKKIVSPLTTVGNLPYRRLMRKLGADVTYSEMALAVPLIQGTNSEWALPKAHTSEFPGFGVQVACSKAWQAAKAAEALANSVSEISEINLNSGCPIDLLYRQGSGSALLDNPARMIRCLNAMNYVSKDIPITVKIRTGTKEGHPIAEGLVKRLVNETDVAAITLHGRSRQQRYTKSADWDYVSQVADTLRSAEADFIETEQGKEGRDSKNRIQFVGNGDVNNFEDWYRYLNGNENIDSVMVARGALIKPWIFEEVESQQYLDKTSTERLDILRDYAQFSMEHWGTDEYGISQCRRFFCEFMSFFHRYVPWVFVKDTL | not soluble |
| MLSSTAIAKWQKINDVDYTWGPFKIYNISLFTETGEYKPQERPIMLTLRYNKPVDGRDFAISVAKSWANLGIALSEQNVVIERLRKILPDLKSGDALSYIALSDHGYFVLNDQVIEQEFNHEFNDAMLAIWLDPKVELSHKLITKKIEGAAQAVHYSAEYREKVTSSSEDLVSQEQRQQNLPNGTPSEATSLTEQEEREDDEKAPAISDAENDLRHSIDESAPQIVEPEQEIIPNVDPMPDYQLPVS | not soluble |
| MGSDKIHHHHHHMNGFCARLRAITHNERLKMKIAVLLSGGVDSSYSAYSLKEQGHELVGIYLKLHASEKKHDLYIKNAQKACEFLGIPLEVLDFQKDFKSAVYDEFINAYEEGQTPNPCALCNPLMKFGLALDHALKLGCEKIATGHYARVKEIDKISYIQEALDKTKDQSYFLYALEHEVIAKLVFPLGDLLKKDIKPLALNAMPFLGTLETYKESQEICFVEKSYIDTLKKHVEVEKEGVVKNLQGEVIGTHKGYMQYTIGKRKGFSIKGALEPHFVVGIDAKKNELVVGKKEDLATHSLKAKNKSLMKDFKDGEYFIKARYRSVPAKAHVSLKDEVIEVGFKEPFYGVAKGQALVVYKDDILLGGGVIV | not soluble |
| GPGSMEVNATLIDCCDPQKPSRVLFHFLILDAPSPSNLPTYIKELQHRGVRHLVRVCGPTYDATLVKSRGIDVHSWPFDDGAPPTRAVLDSWLKLLDTELARQQEDPSVPPPTIGVHCVAGLGRAPILVALALVEYGNVSALDAIALIREKRKGAINQTQMHWITKYKRRHQGAGCVIM | soluble |
| VMGNEYPDWIWGLSTTLRYKDWTLGISLDGRVGGMAYSRTEQTMWNTGVHPDSDNKWRYDEVVNGKKNYVGQGVKVVSGKVEYDTTGKIVSDTRVFAPNDTQVSYESYIKNYNPWSGGKVYQNVHDCTFLKLRELSLLYTMPKSVCEKIHMKGVTLGLIGQNLLIWMKEFKYADPDVDSDDLNSPSMRYVGFNVKFDL | not soluble |
| MITLYGFGKCFNVMDASPFVVKVDLFMRMANIPCQVKYGAKYLKKSPKGKLPFINDNGTVVADSDAIITYLTKQYQVTLDAELTPEQKAQAHLITKSLDEGLYWCLVYSRWATDECWPLTNEAFFATLPIPLRWFLPNIIRKSVKKNLHGQGVGRHSLEEILAISDKSLASLSTLLADKNFFFGDTHTSFDAVVYSHLCEFISVRFDNGFESKFTKNAKRYQNLVQFCQRIEDKFYPEKLEHHHHHH | soluble |
| MKVFTEKIPNIPWEERPEGYTGPVWRYSKNPIIGRNPVPKGARVFNSAVVPYNGEFVGVFRIDHKNTRPFLHFGRSKDGINWEIEPEEIQWVDVNGEPFQPSYAYDPRVVKIEDTYYITFCTDDHGPTIGVGMTKDFKTFVRLPNAYVPFNRNGVLFPRKINGKYVMLNRPSDNGHTPFGDIFLSESPDMIHWGNHRFVLGRSSYNWWENLKIGAGPYPIETSEGWLLIYHGVTLTCNGYVYSFGAALLDLDDPSKVLYRSRYYLLTPEEEYETVGFVPNVVFPCAALCDADTGRVAIYYGAADTHVALAFGYIDEIVDFVKRNSM | not soluble |
| MGSDKIHHHHHHMHLFKRAEMLNVIDTLATNYLKGKVRAVRLSVIALLSGGHILLEDIPGLGKTTLALALARALGLSFGRVQCTSDLLPSDITGLSILNRDENRFTFMPGPIFNNVVLMDEINRAMPKTQSALLEAMEERRVTVEGTTHPLPEPFLVIATQNPVEQVGTYPLPESQLDRFMVRSGIGYPPEAIEKAIIKGGSIRDGIRHLEPLVTVNDIIEAQRTVRESIYLSDKVVDYIHAIVAATRSHRAVTSGVSTRGAISMAETAKAHAYLEGRDYVIPEDVKAIAAPVGAHRLILGFDNENLDKGELLHAILATIPVPLA | not soluble |
| MGSDKIHHHHHHMSDYNFAYLDEQTKRMIRRAILKGLAIPGYQVPFASREMPMPYGWGTGGVQVSAAALTPDDTFKVIDQGADDTTNAVSIRKFFERTAGVATTEETEKASIIQTRHRIPEADLREDQILVYQVPIPEPLRFLEPRETETRKMHALEEYGLMHVKLYEDISQHGAIATSYAYPVKVEGRYVMDPSPIPKFDNPKMEMAAIQLFGAGREQRIYAVPPYTKVVSLDFEDYPFEATKAEHPCDLCAAEDSYLDEVIVDDQGGRMFVCSDTDYCRSRREAGHVGRLGQNAPLNTGPEAA | not soluble |
| SLTITVLQGGNVLDLERGVLLEHHHVVIDGERIVEVTDRPVDLPNAQAIDVRGKTVMPGFIDCHVHVLASNANLGVNATQPNILAAIRSLPILDAMLSRGFTSVRDAGGADWSLMQAVETGLVSGPRIFPSGKALSQTGGHGDFRPRGDLLEPCSCCFRTGAIARVVDGVEGVRLAVREEIQKGATQIKIMASGGVASPTDPIANTQYSEDEIRAIVDEAEAANTYVMAHAYTGRAIARAVRCGVRTIEHGNLVDEAAAKLMHEHGAFVVPTLVTYDALAKHGAEFGMPPESVAKVASVQQKGRESLEIYANAGVKMGFGSDLLGEMHAFQSGEFRIRAEVLGNLEALRSATTVAAEIVNMQGQLGVIAVGAIADLVVLDGNPLEDIGVVADEGARVEYVLQRGTLVKRQAGGR | not soluble |
| GPGSMPVEQLEEENKTLRTKVRVLEEELKHRNAECVRLRDELQLLSGVMRENDSQRQLIDTLREELEFSRKSHAEAVEALNVGEKQRRNEEHRQRMARVQLQLSTSGMDVKTGTSSQAGGAVLPVVTGGVVPTSSGVEIICKSSNISSLGFAPVQRPPDFAGSAYGQFYRGVANSADLVEEEDEVSRLMAMAKDGAMLDIKHAEVTDGEENELLERYKALKLWKPN | not soluble |
| MPVSGYLRIKGKRVGVEIFPFQAYHSQIKEVRQQVGNMAILPLRTQVRGPAPSANIESDIIDESLYYFKANVFFRTYEIKSDVDRVLIYVTLYITECLKKLNRSTSKAQGQQDMYSLAISKFDIPGDAGFPLNAVYAKPQTAQDADLMRQYLLQLRHETGNRVLEKVFNTEDGKPNKWWTCFAKKKFMEKSLAGPGQLEHHHHHH | not soluble |
| MGSDKIHHHHHHMPVLPVSSYKGSGPLANGHVQTMFPVLFRPMPVVEYHRQRLETPDGDFLDVDFSSAAAAAQSESIAVISHGLEGHSRRRYVQGMARVLNARGWDAAAWNFRGCSGQPNRLPRMYHSGDTQDLHTVVTACAQKGYRRILLVGVSMGGNQILKYLGEDPDRVDSRVCGAVVFSVPCDLVGAAQVLGRPQNSVYMRYFLRTLRQKIKAKHAMYPDTIQMDGLDSIRTFAEFDDRYTAPLHGFSGALDYWTKSSCRQFLSSVRVPALLVNALNDPFLSASCYPYREARQSGSLFFETTVTGGHVGFVQFNRQNIYWSEERLLSFMDEQGL | not soluble |
| MEIPTAKPQKEHEFLNRIVGDWIMTASSGHEAYDPNDPEQVFIEKVRSIGGLWIIGEGTGKMPDGTSMTAVITVGFDPAKGNFVGTWVGSMMTNLWVYKGWLEEDGKTLTLEAEGPAFDGSGDTATYHDVLVLHDDNHRSFSGSVKQPDGTFKTFMTSEFRRKT | soluble |
| MGSDKIHHHHHHMTMTKKDALLLAAKELFGEYGYSETTFKKISERAGVALGLLTHHYGNKEKLFLAAGLDVLDRFIVYLQDACAKGNNGYESVMNFCRAYLDFSIDKNEHFMVLVRCSPYSDMKTKTDRDIMYEKFNQVPRELEYHVRRGIEDGSLKSLPAYETTTVLTCNLVGSIRTKLLTPYAPPSLYDDVLEFISRSIKA | not soluble |
| MSLGFIDAQREHFGVESICKALQVAPSGYWRRAARRSNPALLPARAKGDAELVPQIERVWTSNLQVYGYRKVWRQMLREGTAVARCTVERLMRLKGLQGARRGKKILTTVPDAKAPCPLDRVNRQFKADKPNQLWVSDFTYVSTWQGMVYVAFVVDVYARFIVGWRVSRSMRTDFVLDALEQALYARKPERDGALIHHSDRGLQYVSIRYSERLAEAGIEPSVGSKGDSYDNALAETINGLYKTELIHRRAPWKSKEAVELATLEWVSWFNHHRLMESLGYIPPAEAEANYHWQLAGQAMSVEGHHHHHH | not soluble |
| MACKNPKKFFPIRKSPVLRDGAFKGKLVLVTGGGTGIGKAIATTFAHLRATVVIAARRMEKLEQTARDITKITGGTCEPFQMDIKDPGMVSDAFDKIDMKFGKVPEILVNNAAGNFIMATELLSSNAYGTIIDIVLKGTFNVTTELGKRCIQNKTGASITSITAGYARAGAPFIVPSAVSKAGVETMTKSLATEWSKYGLRFNAVSPGPIPTKGAWGRLNSGEMGDIAEKMKFLNPEGRVGSPEEVANLVAFISSDHMSFLNGAIIDLDGGQQHFNHGSHMGDFLHSWDHKNWEDAENLIRGRTGKEKA | not soluble |
| MGSDKIHHHHHHMAQHVIEMREITKKFDDFVANDHINLDLRKGEIHALLGENGAGKSTLMNMLAGLLEPTSGSIKINGSAVTIDSPSKSAQLGIGMVHQHFMLVEAFTVTENIILGNEVVKNGILDLKKAGQEIKALSEKYGLAVDPNAKIADISVGAQQRVEILKTLYRGADILIFDEPTAVLTPSEIQELMTIMKSLVKEGKSIILITHKLDEIRSVADRVTVIRRGKSIETVEVSGTTSQDLAEMMVGRSVSFTIEKTPTKPKETILSIKDLVVNENRGIPAIKGLSLEVKAGEIIGIAGIDGNGQSELVQAITGLRKIKSGHLTIKGQDVTKLSTRKITELSVGHVPEDRHRDGLILELTMAENLALQTYYKAPLSHNGVLNYSKINEHGRHLMQEFDVRGANELIPAKGFSGGNQQKAIIAREVDRDPDLLIVSQPTRGLDVGAIEYIHKRLIAERDEGKAVLLVSFELDEILNLSDRIAVIHDGQIQGIVTPETTNKQELGILMAGGSIEREEINV | not soluble |
| MSGALKENSGKPSEVEYTHFKDLQALEMERGRLYETIVVTWDDSMVGNAAPIGVLCTGDDTVTLYLYQGTRTVENVLNNGRFTVNVTLDPLIFTDSTLGDLEEDMFSHYRDFLHLRGADAFFTAEVVSVKKLVKRDRFGESELHVVKARAGDVMRAESFRMALNRGIYAVIESLIAYTRAEFSDPLVLRERIAEMNRVARKVGGPREKEAMRRIIQALESKIS | not soluble |
